{"source": "paper PMC12297555", "binders": {"B1": {"name": "Oligo 4, 23-bp symmetric palindromic dsDNA (dsDNA)", "DNA 1": "AATATTATTAACAAAATAATATT", "DNA 2": "AATATTATTTTGTTAATAATATT"}}, "target": "T1, ScoC (Geobacillus kaustophilus strain T-1, UniProt Q5L293 1-201)", "T1 sequence": "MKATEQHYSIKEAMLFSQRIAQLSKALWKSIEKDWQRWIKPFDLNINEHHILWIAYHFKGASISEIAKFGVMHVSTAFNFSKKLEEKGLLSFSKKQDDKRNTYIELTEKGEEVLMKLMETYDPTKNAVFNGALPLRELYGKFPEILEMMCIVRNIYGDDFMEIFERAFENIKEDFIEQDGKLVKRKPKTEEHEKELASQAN", "experiment": "X-ray crystallography"}
{"binder": "B1", "values": [{"measurement": "binding result", "result": "binds"}]}
